Measured values from patent US5573924.

How the values were obtained:
[1] = biological target: human CD27 ligand (CD27L), membrane-bound (human); assay: indirect binding assay on MP-1 cells (native CD27L): varying CD27/Fc, then 125I-mouse anti-human IgG; Scatchard analysis, high-affinity component
[2] = biological target: human CD27 ligand (CD27L), membrane-bound (human); assay: indirect binding assay on MP-1 cells (native CD27L): varying CD27/Fc, then 125I-mouse anti-human IgG; Scatchard analysis, low-affinity component
[3] = biological target: human CD27 ligand (CD27L), membrane-bound (human); assay: indirect binding assay on CV-1/EBNA cells transfected with cloned CD27L: varying CD27/Fc, then 125I-mouse anti-human IgG; Scatchard analysis, high-affinity component
[4] = biological target: human CD27 ligand (CD27L), membrane-bound (human); assay: indirect binding assay on CV-1/EBNA cells transfected with cloned CD27L: varying CD27/Fc, then 125I-mouse anti-human IgG; Scatchard analysis, low-affinity component

Ka [1]: 1.58e+09 M⁻¹
Ka [2]: 1.83e+08 M⁻¹
Ka [3]: 2.7e+09 M⁻¹
Ka [4]: 1.2e+08 M⁻¹
Substance: CD27/Fc fusion protein (from UniProt P26842)
